Source: patent US20130011875A1

What was measured:
[1] = biological target: TNFRII-Fc (tumor necrosis factor receptor 2 ectodomain fused to Fc region of IgG1); experiment: cell-based or functional assay
[2] = biological target: recombinant human Met-granulocyte colony-stimulating factor (rHuMetGCSF) (Homo sapiens) (UniProt P09919); experiment: cell-based or functional assay

Sequence of TNFRII-Fc (tumor necrosis factor receptor 2 ectodomain fused to Fc region of IgG1) (chain, as listed by the source limits assumed): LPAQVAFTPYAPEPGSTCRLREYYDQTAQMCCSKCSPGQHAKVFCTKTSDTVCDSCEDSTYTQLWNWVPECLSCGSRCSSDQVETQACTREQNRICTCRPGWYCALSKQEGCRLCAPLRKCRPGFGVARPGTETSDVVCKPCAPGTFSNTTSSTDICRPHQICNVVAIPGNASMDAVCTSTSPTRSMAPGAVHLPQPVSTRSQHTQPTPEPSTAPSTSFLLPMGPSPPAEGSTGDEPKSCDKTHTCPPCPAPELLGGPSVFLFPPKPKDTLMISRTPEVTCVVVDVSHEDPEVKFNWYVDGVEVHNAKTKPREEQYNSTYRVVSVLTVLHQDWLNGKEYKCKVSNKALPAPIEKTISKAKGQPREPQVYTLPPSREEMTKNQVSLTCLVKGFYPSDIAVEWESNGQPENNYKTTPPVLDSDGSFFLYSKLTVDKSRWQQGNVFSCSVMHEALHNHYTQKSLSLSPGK

Substance: Pichia pastoris vacuolar protein sorting receptor 10-1 (Vps10-1) (from UniProt C4R192 21-1542)
- relative TNFRII-Fc titer in deep-well plate supernatant (ELISA), vps10-1 deletion mutants yGLY9992 and yGLY9993 against parental wild-type strain yGLY8292 [1]: 10 fold
- relative rhGCSF titer in fermentation supernatant (GCSF ELISA), vps10-1 deletion mutant yGLY9933 against parental strain yGLY8538 [2]: > 7 fold
